B1: rat C-reactive protein purified from rat serum (natural protein, UniProt P48199 20-230, looked up)
chain: HEDMSKQAFVFPGVSATAYVSLEAESKKPLEAFTVCLYAHADVSRSFSIFSYATKTSFNEILLFWTRGQGFSIAVGGPEILFSASEIPEVPTHICATWESATGIVELWLDGKPRVRKSLQKGYIVGTNASIILGQEQDSYGGGFDANQSLVGDIGDVNMWDFVLSPEQINAVYVGRVFSPNVLNWRALKYETHGDVFIKPQLWPLTDCCES
notes: C-reactive protein, rat, endogenous protein from serum; Homopentamer by negative-stain EM and SEC; also called rCRP; rat CRP; source: purified from serum of turpentine-injected Wistar rats (p-Aminophenyl Phosphoryl Choline Agarose, DEAE, SEC)
B2: recombinant rat CRP with N-terminal Strep-tag II, secreted from E. coli BL21 (DE3) (natural protein, UniProt P48199 20-230, looked up)
chain: B1 chain
notes: C-reactive protein, rat, wild type, cDNA by NM_017096.3; so no native signal peptide; A bacterial signal peptide stood before the tag for secretion (text: alkaline phosphatase, ALP); also called rCRP; rCRPwt-pET42c
B3: recombinant rat CRP with C-terminal 6×His tag, secreted from Pichia pastoris GS115 (natural protein, UniProt P48199 20-230, looked up)
chain: B1 chain
notes: C-reactive protein, rat, wild type; the reverse primer ends at ...DCCES followed by GA and six histidines; Secreted by the S. cerevisiae alpha-factor signal of pPIC9K; By the reverse primer a Gly-Ala stands between CRP and the His6 tag; also called rCRP; rCRP-6×His fusion protein; source: P. pastoris GS115, secreted into the culture medium, purified (Ni2+-NTA, p-Aminophenyl Phosphoryl Choline …)

How the values were obtained:
[1] = target: the molecule itself; test: negative-stain electron microscopy; CRP diluted to 0.15-0.3 mg/mL in 20 mM Tris pH 6.8, 150 mM NaCl, 2 mM CaCl2, 1-2 h at 18°C, 1% uranyl acetate; self-association, pentamer
[2] = target: the molecule itself; test: SDS-PAGE and Western blot, non-reduced against reduced; yeast-secreted rCRP-6×His without or with 20 mM DTT, anti-His detection; disulfide-linked dimer of subunits

Row | Protein | stoichiometry N [1] | stoichiometry N [2]
1 | B1 | 5 | 
2 | B2 | 5 | 
3 | B3 | 5 | 2
